The supplement of paper PMC10567573
± gives the standard deviation.

Test: protein stability index of a GFP-peptide fusion (GPS, HEK-293T) (PSI 1-6); higher = more stable
[1] = treatment: DMSO, c terminus: a fixed tail appended
[2] = treatment: MLN4924 1 uM, 8 h, c terminus: a fixed tail appended
[3] = treatment: DMSO, c terminus: native
[4] = treatment: MLN4924 1 uM, 8 h, c terminus: native
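Note: 24-mer peptide tiles fused after GFP, lentivirally expressed, FACS-sorted into six equal bins by GFP/DsRed ratio, decoded by Illumina sequencing, PSI is the read-weighted mean bin number.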

ANHTHTFYGHSHHSHHGHPSHQSH [C10orf62]
protein stability index [1]: 3.51 ± 0.12
protein stability index [2]: 3.46 ± 0.23

MAGGKAGKDSGKAKAKAVSRSQRA [H2AZ2]
protein stability index [1]: 4.73 ± 0.24
protein stability index [2]: 5.03 ± 0.25

STTDLRGTQFDYERGKGESTEDR [ZSWIM9]
protein stability index [3]: 5.28 ± 0.34
protein stability index [4]: 5.43 ± 0.11

RCHRGYTLDPNGKTCSRVDHCAQQ [MATN2]
protein stability index [1]: 3.68 ± 0.28
protein stability index [2]: 3.22 ± 0.34

FSDLQVYSYRRLGEEALSLQALDP [SLC22A15]
protein stability index [1]: 2.73 ± 0.34
protein stability index [2]: 2.84 ± 0.31

GILGFNSAEWFITAVGAILAGGLC [ACSBG2]
protein stability index [2]: 3.62 ± 0.54

NLPFWVKEKANSLKNEIQEVEELD [SPATS1]
protein stability index [1]: 4.7 ± 0.32
protein stability index [2]: 4.82 ± 0.083

PLAMNYLDRFLSLEPVKKSRLQLL [CCND1]
protein stability index [1]: 2.23 ± 0.12
protein stability index [2]: 2.27 ± 0.14

QEITSETEDLCEKPDDEVKETAHD [RIPK4]
protein stability index [1]: 5.6 ± 0.17
protein stability index [2]: 5.69 ± 0.21

PMVRKRSVSNSTQTSSSSSQSETS [DLC1]
protein stability index [1]: 5.26 ± 0.21
protein stability index [2]: 5.3 ± 0.33

TEWACILRRKTPRHKQPTLLMVRA [C6orf223]
protein stability index [1]: 2.19 ± 0.57
protein stability index [2]: 2.17 ± 0.097

NSLQSYQLSPNKHFSLRVQSRANG [PCDHGA10]
protein stability index [1]: 3.41 ± 0.077
protein stability index [2]: 3.64 ± 0.42

VQELVLEDLQDGDVRMGGSFRGAF [NET1]
protein stability index [1]: 3.38 ± 0.18
protein stability index [2]: 3.47 ± 0.12

LRLHDNPALKECIQGADTIRCVYI [CRY1]
protein stability index [1]: 2.6 ± 0.38
protein stability index [2]: 2.41 ± 0.3

LDEALKHVKETQPPETVQNWIELL [GOLPH3]
protein stability index [1]: 3.94 ± 0.18
protein stability index [2]: 4.17 ± 0.24

GHSSSVEMFLYFEDHGLVTCSADH [WDR41]
protein stability index [1]: 2.16 ± 0.34
protein stability index [2]: 2.25 ± 0.29

VKEISDKISKEEMVRRLKMVVKTF [PDS5B]
protein stability index [2]: 2.24 ± 0.91

SQSLALKEQNNLKQLEFGLKEAPV [ZNF8]
protein stability index [1]: 4.7 ± 0.24
protein stability index [2]: 4.44 ± 0.16

SMAKEVIAKELSKTYQETPEIDMF [ZBED1]
protein stability index [1]: 4.11 ± 0.21
protein stability index [2]: 4.05 ± 0.18

RTVAVGDIVWGKIHGFPWWPARVL [PWWP2B]
protein stability index [1]: 2.02 ± 0.47
protein stability index [2]: 2.17 ± 0.23

SDDDEEEEENIGCEEKAKKNANRP [ACBD3]
protein stability index [1]: 5.42 ± 0.28
protein stability index [2]: 5.49 ± 0.38

AEALFDFTGNSKLELNFKAGDVIF [NCF4]
protein stability index [1]: 2.05 ± 0.29
protein stability index [2]: 2.23 ± 0.27

MFSVLSYGRLVARAVLGGLSQTDP [PPTC7]
protein stability index [1]: 2.01 ± 0.74
protein stability index [2]: 2.85 ± 1.3

RETLIIAVLVSASIANLWLWMNQ [FATE1]
protein stability index [3]: 2.54 ± 0.14
protein stability index [4]: 2.31 ± 0.21

CCLVKMESLEPDAQVLMLGQILEL [FANCE]
protein stability index [1]: 3.04 ± 0.15
protein stability index [2]: 2.83 ± 0.48

TRGKRESESRGSSGRVKRERDRER [USP39]
protein stability index [1]: 5.04 ± 0.26
protein stability index [2]: 5.3 ± 0.18

LAMLALLSPLSLAQYDSWPHYPEY [LOXL2]
protein stability index [1]: 3.22 ± 0.32
protein stability index [2]: 3.46 ± 0.16

RLPFLSSSNLSLDVLRGNDETIGF [POMP]
protein stability index [1]: 3.02 ± 0.42
protein stability index [2]: 3 ± 0.27

HASSYISPEKEEQYIAQFTSQFLS [PRAME]
protein stability index [1]: 3.06 ± 0.44
protein stability index [2]: 3.31 ± 0.27

SDAIRVVNAVLTQIDQIKRHSNVV [TRIP13]
protein stability index [1]: 2.33 ± 0.2
protein stability index [2]: 2.35 ± 0.21

PGVLKVLWLTASQPCSIVDVEFLP [LPCAT4]
protein stability index [1]: 3.08 ± 0.27
protein stability index [2]: 2.87 ± 0.99

FIYTAKLSLNMDNLQDTLEAASFL [KLHL13]
protein stability index [1]: 2.65 ± 0.54
protein stability index [2]: 2.96 ± 0.48
